How the values were obtained:
HeLa Kyoto [1] = test: solubility in G1/S (NP-40 vs SDS abundance) (log2 ratio); higher = more soluble; settings: cell cycle stage: G1/S
HeLa Kyoto [2] = test: melting temperature (median over replicates), in situ; higher = more thermally stable
HeLa Kyoto [3] = test: solubility change mitosis vs G1/S (difference of NP-40 vs SDS log2 ratios) (log2 ratio difference); higher = more soluble in mitosis
HeLa Kyoto [4] = test: thermal stability score vs G1/S (z-score of summed log2 fold changes over temperatures); higher = more thermally stable than in G1/S
[5] = cell cycle stage: early G1 (4.5 h after nocodazole release)
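Throughout, for melting temperature (median over replicates), in situ: HeLa Kyoto cells synchronized by double thymidine or nocodazole block, proteins quantified by TMT10plex mass spectrometry, three independent biological replicates.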
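Throughout, for solubility change mitosis vs G1/S (difference of NP-40 vs SDS log2 ratios): synchronized HeLa Kyoto cells (double thymidine block for G1/S, nocodazole release for mitosis), protein amounts in NP-40 versus SDS lysates quantified by mass spectrometry, three biological replicates.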
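Throughout, for solubility in G1/S (NP-40 vs SDS abundance): HeLa Kyoto cells arrested at G1/S by double thymidine block, proteins quantified by TMT10plex mass spectrometry in mild NP-40 versus SDS extracts, three biological replicates.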
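Throughout, for thermal stability score vs G1/S (z-score of summed log2 fold changes over temperatures): synchronized HeLa Kyoto cells, proteins quantified by TMT10plex mass spectrometry, three biological replicates, mitosis taken 0.5 h after nocodazole release, G1/S directly after double thymidine block.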

In the case of “MTSLYGRHAEKTTDMPKPSAPKVHVQRSVSRDTIAIHFSASGEEEEEEEEEFREYFEEGLDDQSIVTGLEAKEDLYLEPQVGHDPAGPAASPVLADGLSVSQAPAILPVSKNTVKLLESPVPAAQVLSTVPLAVSPGSSSSGPLASSPSVSSLSEQKTSSSSPLSSPSKSPILSSSASTSTLSSAKPFMSLVKSLSTEVEPKESPHPARHRHLMKTLVKSLSTDTSRQESDTVSYKPPDSKLNLHLFKQFTQPRNTGGDSKTAPSSPLTSPSDTRSFFKVPEMEAKIEDTKRRLSEVIYEPFQLLSKIIGEESGSHRPKALSSSASELSNLSSLNGHLESNNNYSIKEEECDSEGDGYGSDSNIPRSDHPKSTGEPTREIELKSSQGSSLKDLGLKTSSLVLEKCSLSALVSKEDEEFCELYTEDFDLETEGESKVDKLSDIPLKPEVLAEDGVVLDSEDEVDSAVQHPELPVKTLGFFIMCVYVYLILPLPHYVSGLFLGIGLGFMTAVCVIWFFTPPSAHKYHKLHKNLRHWNTRSLDIKEPEILKGWMNEIYNYDPETYHATLTHSVFVRLEGGTLRLSKPNKNISRRASYNEPKPEVTYISQKIYDLSDSKIYLVPKTLARKRIWNKKYPICIELGQQDDFMSKAQTDKETSEEKPPAEGSEDPKKPPRPQEGTRSSQRDQILYLFGRTGREKEEWFRRFILASKLKSEIKKSSGVSGGKPGLLPAHSRHNSPSGHLTHSRSSSKGSVEEIMSQPKQKELAGSVRQKMLLDYSVYMGRCVPQESRSPQRSPLQSAESSPTAGKKLPEVPPSEEEEQEAWVNALLGRIFWDFLGEKYWSDLVSKKIQMKLSKIKLPYFMNELTLTELDMGVAVPKILQAFKPYVDHQGLWIDLEMSYNGSFLMTLETKMNLTKLGKEPLVEALKVGEIGKEGCRPRAFCLADSDEESSSAGSSEEDDAPEPSGGDKQLLPGAEGYVGGHRTSKIMRFVDKITKSKYFQKATETEFIKKKIEEVSNTPLLLTVEVQECRGTLAVNIPPPPTDRVWYGFRKPPHVELKARPKLGEREVTLVHVTDWIEKKLEQEFQKVFVMPNMDDVYITIMHSAMDPRSTSCLLKDPPVEAADQP [TEX2]”, the “solubility in G1/S (log2)” value (HeLa Kyoto [1]) is reported as -0.062, the melting temperature (HeLa Kyoto [2]; cell cycle stage: G1/S) is reported as 50.1 °C and the melting temperature (HeLa Kyoto [2]; cell cycle stage: mitosis) is reported as 50.4 °C. For the same sequence, the “solubility change mitosis (log2)” value (HeLa Kyoto [3]) was -0.118, the thermal stability score (HeLa Kyoto [4]; [5]) was -0.212 and the thermal stability score (HeLa Kyoto [4]; cell cycle stage: mitosis) was -0.23.

In the case of “MTTKRSLFVRLVPCRCLRGEEETVTTLDYSHCSLEQVPKEIFTFEKTLEELYLDANQIEELPKQLFNCQSLHKLSLPDNDLTTLPASIANLINLRELDVSKNGIQEFPENIKNCKVLTIVEASVNPISKLPDGFSQLLNLTQLYLNDAFLEFLPANFGRLTKLQILELRENQLKMLPKTMNRLTQLERLDLGSNEFTEVPEVLEQLSGLKEFWMDANRLTFIPGFIGSLKQLTYLDVSKNNIEMVEEGISTCENLQDLLLSSNSLQQLPETIGSLKNITTLKIDENQLMYLPDSIGGLISVEELDCSFNEVEALPSSIGQLTNLRTFAADHNYLQQLPPEIGSWKNITVLFLHSNKLETLPEEMGDMQKLKVINLSDNRLKNLPFSFTKLQQLTAMWLSDNQSKPLIPLQKETDSETQKMVLTNYMFPQQPRTEDVMFISDNESFNPSLWEEQRKQRAQVAFECDEDKDEREAPPREGNLKRYPTPYPDELKNMVKTVQTIVHRLKDEETNEDSGRDLKPHEDQQDINKDVGVKTSESTTTVKSKVDEREKYMIGNSVQKISEPEAEISPGSLPVTANMKASENLKHIVNHDDVFEESEELSSDEEMKMAEMRPPLIETSINQPKVVALSNNKKDDTKETDSLSDEVTHNSNQNNSNCSSPSRMSDSVSLNTDSSQDTSLCSPVKQTHIDINSKIRQEDENFNSLLQNGDILNSSTEEKFKAHDKKDFNLPEYDLNVEERLVLIEKSVDSTATADDTHKLDHINMNLNKLITNDTFQPEIMERSKTQDIVLGTSFLSINSKEETEHLENGNKYPNLESVNKVNGHSEETSQSPNRTEPHDSDCSVDLGISKSTEDLSPQKSGPVGSVVKSHSITNMEIGGLKIYDILSDNGPQQPSTTVKITSAVDGKNIVRSKSATLLYDQPLQVFTGSSSSSDLISGTKAIFKFDSNHNPEEPNIIRGPTSGPQSAPQIYGPPQYNIQYSSSAAVKDTLWHSKQNPQIDHASFPPQLLPRSESTENQSYAKHSANMNFSNHNNVRANTAYHLHQRLGPARHGEMWAISPNDRLIPAVTRSTIQRQSSVSSTASVNLGDPGSTRRAQIPEGDYLSYREFHSAGRTPPMMPGSQRPLSARTYSIDGPNASRPQSARPSINEIPERTMSVSDFNYSRTSPSKRPNARVGSEHSLLDPPGKSKVPRDWREQVLRHIEAKKLEKKHPQTSSSGDPCQDGIFISGQQNYSSATLSHKDVPPDSLMKMPLSNGQMGQPLRPQANYSQIHHPPQASVARHPSREQLIDYLMLKVAHQPPYTQPHCSPRQGHELAKQEIRVRVEKDPELGFSISGGVGGRGNPFRPDDDGIFVTRVQPEGPASKLLQPGDKIIQANGYSFINIEHGQAVSLLKTFQNTVELIIVREVSS [ERBB2IP]”, the “solubility in G1/S (log2)” value (HeLa Kyoto [1]) is reported as -0.0185, the melting temperature (HeLa Kyoto [2]; cell cycle stage: G1/S) is reported as 48.8 °C and the melting temperature (HeLa Kyoto [2]; cell cycle stage: mitosis) is reported as 49 °C. For the same sequence, the “solubility change mitosis (log2)” value (HeLa Kyoto [3]) was -0.0785, the thermal stability score (HeLa Kyoto [4]; [5]) was 0.246 and the thermal stability score (HeLa Kyoto [4]; cell cycle stage: mitosis) was 1.12.

For “MTTQQIDLQGPGPWGFRLVGGKDFEQPLAISRVTPGSKAALANLCIGDVITAIDGENTSNMTHLEAQNRIKGCTDNLTLTVARSEHKVWSPLVTEEGKRHPYKMNLASEPQEVLHIGSAHNRSAMPFTASPASSTTARVITNQYNNPAGLYSSENISNFNNALESKTAASGVEANSRPLDHAQPPSSLVIDKESEVYKMLQEKQELNEPPKQSTSFLVLQEILESEEKGDPNKPSGFRSVKAPVTKVAASIGNAQKLPMCDKCGTGIVGVFVKLRDRHRHPECYVCTDCGTNLKQKGHFFVEDQIYCEKHARERVTPPEGYEVVTVFPK [PDLIM1]”, the “solubility in G1/S (log2)” value (HeLa Kyoto [1]) was 0.455, the melting temperature (HeLa Kyoto [2]; cell cycle stage: G1/S) was 55.6 °C and the melting temperature (HeLa Kyoto [2]; cell cycle stage: mitosis) was 56 °C. The “solubility change mitosis (log2)” value (HeLa Kyoto [3]) was 0.147, the thermal stability score (HeLa Kyoto [4]; [5]) was -1.51 and the thermal stability score (HeLa Kyoto [4]; cell cycle stage: mitosis) was -0.369.

“MTVFFKTLRNHWKKTTAGLCLLTWGGHWLYGKHCDNLLRRAACQEAQVFGNQLIPPNAQVKKATVFLNPAACKGKARTLFEKNAAPILHLSGMDVTIVKTDYEGQAKKLLELMENTDVIIVAGGDGTLQEVVTGVLRRTDEATFSKIPIGFIPLGETSSLSHTLFAESGNKVQHITDATLAIVKGETVPLDVLQIKGEKEQPVFAMTGLRWGSFRDAGVKVSKYWYLGPLKIKAAHFFSTLKEWPQTHQASISYTGPTERPPNEPEETPVQRPSLYRRILRRLASYWAQPQDALSQEVSPEVWKDVQLSTIELSITTRNNQLDPTSKEDFLNICIEPDTISKGDFITIGSRKVRNPKLHVEGTECLQASQCTLLIPEGAGGSFSIDSEEYEAMPVEVKLLPRKLQFFCDPRKREQMLTSPTQ [AGK]” was tested, and the “solubility in G1/S (log2)” value (HeLa Kyoto [1]) was 0.0337, the melting temperature (HeLa Kyoto [2]; cell cycle stage: G1/S) was 53.6 °C and the melting temperature (HeLa Kyoto [2]; cell cycle stage: mitosis) was 53.6 °C. The “solubility change mitosis (log2)” value (HeLa Kyoto [3]) was -0.034, the thermal stability score (HeLa Kyoto [4]; [5]) was -0.493 and the thermal stability score (HeLa Kyoto [4]; cell cycle stage: mitosis) was -1.02.

For “MVAPGLVLGLVLPLILWADRSAGIGFRFASYINNDMVLQKEPAGAVIWGFGTPGATVTVTLRQGQETIMKKVTSVKAHSDTWMVVLDPMKPGGPFEVMAQQTLEKINFTLRVHDVLFGDVWLCSGQSNMQMTVLQIFNATRELSNTAAYQSVRILSVSPIQAEQELEDLVAVDLQWSKPTSENLGHGYFKYMSAVCWLFGRHLYDTLQYPIGLIASSWGGTPIEAWSSGRSLKACGVPKQGSIPYDSVTGPSKHSVLWNAMIHPLCNMTLKGVVWYQGESNINYNTDLYNCTFPALIEDWRETFHRGSQGQTERFFPFGLVQLSSDLSKKSSDDGFPQIRWHQTADFGYVPNPKMPNTFMAVAMDLCDRDSPFGSIHPRDKQTVAYRLHLGARALAYGEKNLTFEGPLPEKIELLAHKGLLNLTYYQQIQVQKKDNKIFEISCCSDHRCKWLPASMNTVSTQSLTLAIDSCHGTVVALRYAWTTWPCEYKQCPLYHPSSALPAPPFIAFITDQGPGHQSNVAK [SIAE]”, the “solubility in G1/S (log2)” value (HeLa Kyoto [1]) was 0.569, the melting temperature (HeLa Kyoto [2]; cell cycle stage: G1/S) was 58 °C and the melting temperature (HeLa Kyoto [2]; cell cycle stage: mitosis) was 57.9 °C. For the same sequence, the “solubility change mitosis (log2)” value (HeLa Kyoto [3]) was -0.103, the thermal stability score (HeLa Kyoto [4]; [5]) was 1.01 and the thermal stability score (HeLa Kyoto [4]; cell cycle stage: mitosis) was -0.521.
